Assay results reported in publication PMC4943861 (ACS chemical biology, 2015).

Key:
Abl3D = Abl3D (UniProt P00519 38-512); assay: cell-based or functional assay
Fyn = Fyn (human (endogenous in K562), UniProt P06241 1-537); assay: cell-based or functional assay
Fyn, sequence (P06241 whole entry): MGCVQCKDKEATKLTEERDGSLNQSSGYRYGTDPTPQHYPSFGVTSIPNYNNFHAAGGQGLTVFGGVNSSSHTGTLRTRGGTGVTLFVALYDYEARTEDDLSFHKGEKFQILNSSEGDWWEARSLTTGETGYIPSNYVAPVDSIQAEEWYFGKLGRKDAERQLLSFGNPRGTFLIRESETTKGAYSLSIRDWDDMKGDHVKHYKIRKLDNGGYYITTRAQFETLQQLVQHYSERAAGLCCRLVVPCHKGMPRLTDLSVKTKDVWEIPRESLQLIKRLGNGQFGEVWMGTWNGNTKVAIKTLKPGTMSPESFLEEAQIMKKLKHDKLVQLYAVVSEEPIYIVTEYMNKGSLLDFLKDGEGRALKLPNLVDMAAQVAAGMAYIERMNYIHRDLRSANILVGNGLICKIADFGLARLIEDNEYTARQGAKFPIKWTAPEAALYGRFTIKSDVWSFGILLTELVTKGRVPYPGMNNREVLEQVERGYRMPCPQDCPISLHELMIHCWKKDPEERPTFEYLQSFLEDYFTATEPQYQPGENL

Abl3D, sequence (P00519 38-512): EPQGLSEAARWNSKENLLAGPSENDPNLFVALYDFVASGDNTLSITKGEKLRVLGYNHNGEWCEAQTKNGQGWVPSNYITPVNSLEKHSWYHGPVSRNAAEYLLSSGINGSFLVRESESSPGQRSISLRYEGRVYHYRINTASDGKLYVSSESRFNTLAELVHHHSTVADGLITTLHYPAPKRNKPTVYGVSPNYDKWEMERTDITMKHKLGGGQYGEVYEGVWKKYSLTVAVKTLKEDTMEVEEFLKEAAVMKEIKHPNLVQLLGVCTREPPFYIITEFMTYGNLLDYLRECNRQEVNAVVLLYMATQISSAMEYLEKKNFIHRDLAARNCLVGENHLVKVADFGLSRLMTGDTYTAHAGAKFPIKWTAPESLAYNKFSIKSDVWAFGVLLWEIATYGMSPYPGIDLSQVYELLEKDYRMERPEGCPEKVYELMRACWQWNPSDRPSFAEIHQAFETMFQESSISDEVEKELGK

IC50, in vitro kinase activity assay of Abl3D (Abl3D): 8.3 nM
IC50 of kinase activity of purified FYN, relative to monovalent 4 (Fyn): 8 fold more potent than 4
B1: SNAP(HA4)-4 (designed binder)
chain: DKDCEMKRTTLDSPLGKLELSGCEQGLHEIIFLGKGTSAADAVEVPAPAAVLGGPEPLMQATAWLNAYFHQPEAIEEFPVPALHHPVFQQESFTRQVLWKLLKVVKFGEVISYSHLAALAGNPAATAAVKTALSGNPVPILIPCHRVVQGDLDVGGYEGGLAVKEWLLAHEGHRLGKVSSVPTKLEVVAATPTSLLISWDAPMSSSSVYYYRITYGETGGNSPVQEFTVPYSSSTATISGLSPGVDYTITVYAWGEDSAGYMFMYSPISINYRT
modifications: compound 4 (O6-benzylguanine derivative of the pan-kinase inhibitor 2) covalently conjugated to SNAPtag
